Source: patent US20200247855A1, “THERAPY AND DIAGNOSTICS” (OXFORD UNIVERSITY INNOVATION LIMITED, priority 2017, published 2020)

T1: CCL23_HUMAN (Homo sapiens, UniProt P55773)
T1 sequence (P55773 22-120): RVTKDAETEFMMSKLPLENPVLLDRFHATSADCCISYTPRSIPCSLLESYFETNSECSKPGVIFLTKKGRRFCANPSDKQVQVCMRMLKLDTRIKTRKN

T2: CCL17_HUMAN (Homo sapiens, UniProt Q92583)
T2 sequence (Q92583 24-94): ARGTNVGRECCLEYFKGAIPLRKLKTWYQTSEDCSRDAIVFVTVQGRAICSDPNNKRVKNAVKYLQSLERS

T3: CCL19_HUMAN (Homo sapiens, UniProt Q99731)
T3 sequence (Q99731 22-98): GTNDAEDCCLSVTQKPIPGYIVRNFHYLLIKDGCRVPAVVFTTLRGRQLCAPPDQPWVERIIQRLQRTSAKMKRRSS

T4: CCL1_HUMAN (Homo sapiens, UniProt P22362)
T4 sequence (P22362 24-96): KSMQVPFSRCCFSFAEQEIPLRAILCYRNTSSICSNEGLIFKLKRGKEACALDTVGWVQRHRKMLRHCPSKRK

T5: CCL18_HUMAN (Homo sapiens, UniProt P55774)
T5 sequence (P55774 21-89): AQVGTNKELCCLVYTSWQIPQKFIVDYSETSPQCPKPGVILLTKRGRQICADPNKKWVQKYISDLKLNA

T6: CCL24_HUMAN (Homo sapiens, UniProt O00175)
T6 sequence (O00175 27-119): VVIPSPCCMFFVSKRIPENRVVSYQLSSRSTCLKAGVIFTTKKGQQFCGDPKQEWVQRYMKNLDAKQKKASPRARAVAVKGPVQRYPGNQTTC

T7: CCL5_HUMAN (Homo sapiens, UniProt P13501)
T7 sequence (P13501 24-91): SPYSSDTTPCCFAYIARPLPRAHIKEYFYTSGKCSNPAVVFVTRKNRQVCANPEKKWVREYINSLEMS

T8: CCL4_HUMAN (Homo sapiens, UniProt P13236)
T8 sequence (P13236 24-92): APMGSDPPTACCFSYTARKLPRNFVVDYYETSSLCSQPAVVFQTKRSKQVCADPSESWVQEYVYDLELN

T9: CCL22_HUMAN (Homo sapiens, UniProt O00626)
T9 sequence (O00626 25-93): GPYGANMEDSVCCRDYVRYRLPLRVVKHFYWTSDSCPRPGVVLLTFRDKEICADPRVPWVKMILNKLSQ

B1: P672_RHIPU: tick CKBP, Rhipicephalus pulchellus (protein, listed as Rhipicephalus pulchellus)
chain: VCEVSEQEGVGEDNATEDEDYEDFFKPVTCYFANSTVGPLRPPNCTVVCTNNTAWWNDTKSDGGHCYSEYRPEKRTHSREIYNCTIGVCGNGTCIANHTYADCW
B2: P1243_AMBAM: tick CKBP, Amblyomma americanum; AAM-02 stated identical (protein, listed as Amblyomma americanum)
chain: RNHTEDNSTEYYDYEEARCACPARHLNNTNGTVLKLLGCHYFCNGTLCTAPDGYPCYNLTAQQVRTLTTYPNTSCAVGVCMKGTCVKNGTMEQCFKTP

Tests used:
Assay in all cases: Biolayer interferometry (BLI) binding
CCL2_HUMAN = CCL2_HUMAN (Homo sapiens, UniProt P13500)
Summary of the method: (§1)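 Ni-NTA biosensor loaded with His-tagged tick chemokine-binding protein; 300 nM chemokine cross-binding screen; hits repeated with chemokine dose series; Kd from fitted kinetic and equilibrium data.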

CCL23_HUMAN = target: T1, CCL23_HUMAN
Summary of the method: as §1

CCL17_HUMAN = target: T2, CCL17_HUMAN
Summary of the method: as §1

CCL19_HUMAN = target: T3, CCL19_HUMAN
Summary of the method: as §1

CCL20_HUMAN = CCL20_HUMAN (Homo sapiens, UniProt P78556)
Summary of the method: as §1

CCL1_HUMAN = target: T4, CCL1_HUMAN
Summary of the method: as §1

CCL18_HUMAN = target: T5, CCL18_HUMAN
Summary of the method: as §1

CCL24_HUMAN = target: T6, CCL24_HUMAN
Summary of the method: as §1

CCL5_HUMAN = target: T7, CCL5_HUMAN
Summary of the method: as §1

CCL4_HUMAN = target: T8, CCL4_HUMAN
Summary of the method: as §1

CCL11_HUMAN = CCL11_HUMAN (Homo sapiens, UniProt P51671)
Summary of the method: as §1

CCL22_HUMAN = target: T9, CCL22_HUMAN
Summary of the method: as §1

Chain of CCL20_HUMAN (P78556 27-96): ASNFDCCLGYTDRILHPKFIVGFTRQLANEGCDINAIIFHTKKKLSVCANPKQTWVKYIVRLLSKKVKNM
Chain of CCL2_HUMAN (P13500 24-99): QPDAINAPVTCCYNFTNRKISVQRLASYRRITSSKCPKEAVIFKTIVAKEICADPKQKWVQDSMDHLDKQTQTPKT
Chain of CCL11_HUMAN (P51671 24-97): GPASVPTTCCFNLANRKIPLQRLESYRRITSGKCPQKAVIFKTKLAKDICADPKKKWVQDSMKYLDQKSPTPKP

Row | Molecule | Kd (CCL2_HUMAN) [nM] | Kd (CCL23_HUMAN) [nM] | Kd (CCL17_HUMAN) [nM] | Kd (CCL19_HUMAN) [nM] | Kd (CCL20_HUMAN) [nM] | Kd (CCL1_HUMAN) [nM] | Kd (CCL18_HUMAN) [nM] | Kd (CCL24_HUMAN) [nM] | Kd (CCL5_HUMAN) [nM] | Kd (CCL4_HUMAN) [nM] | Kd (CCL11_HUMAN) [nM] | Kd (CCL22_HUMAN) [nM]
1 | B1 | 9.1 | 10 | – | – | – | – | – | – | – | – | – | –
2 | B2 | – | – | 0.734 | 0.592 | 8.34 | 21.3 | 0.00501 | 7.39 | 1.74 | 15.3 | 6.03 | 22.3
